Experimental data published in patent US20190275087A1, “EXPANSION AND DIFFERENTIATION OF STEM CELLS” (Allergan Pharmaceuticals International Limited, priority 2018, published 2019).

What was measured:
[1] = system: Human bone marrow-derived MSCs; assay: MSC proliferation (crystal violet cell abundance); type: cell-based
Description: Human bone marrow-derived MSCs obtained from American Type Culture Collection (ATCC) were cultured in normal media, which consists of Alpha-Minimum Essential Medium (α-MEM) (Lonza) with 10% (v/v) FBS (Life Technologies) and 2.4 mM L-glutamine (Lonza), at 37° C. in a humidified normoxic incubator up to a maximum of 10 population doublings. Where indicated, the normal media was supplemented with 15 ng/mL IGF-1 (Life Technologies) and/or […] bFGF (Life Technologies), equivalent to the growth factor concentrations in the ATCC-recommended media. Cells were passaged once they reach 70-80% confluence.
Where indicated, tissue culture plastic wells were coated with 20 μg/mL recombinant human tropoelastin (Elastagen) or 2 μg/mL fibronectin (Sigma-Aldrich®) in PBS (10 mM phosphate, 150 mM NaCl, pH 7.4) at 4° C. overnight. The protein solution was removed, and wells were washed three times with PBS to remove unbound protein prior to cell seeding.
[…] To prevent protein adhesion on the tissue culture substrate, wells were pre-incubated with normal media for 5 hours to enable surface blocking by serum proteins prior to cell seeding in supplemented media.
Sub-confluent flasks of MSCs were treated with 0.05% (v/v) trypsin-EDTA (Sigma-Aldrich®) at 37° C. for 5 min to lift off adherent cells from the culture vessel. Trypsin was neutralized with two volumes of serum-containing growth media. Cells were centrifuged at 270 g for 5 min and resuspended in the required media. Cells were seeded at a density of 5000 cells/cm^2 on bare or protein-coated tissue culture plastic wells, in normal or supplemented media. Media was changed every 2 days. After specific time points, cells were fixed with 3% (v/v) formaldehyde at room temperature for 20 min, washed with PBS, then stained with 0.1% (w/v) crystal violet in 0.2 M MES buffer for 1 hour. Excess stain was washed off four times with reverse osmosis water. The retained stain was solubilized with 10% (v/v) acetic acid and sample absorbance values indicative of cell abundance were read at 570 nm. Sample absorbance values were subtracted by baseline values (corresponding to cell numbers in serum-free media, or cell numbers on day 1 post-seeding) and expressed as a fraction of the highest absorbance among all samples on day 7 post-seeding.

[2] = target: αv integrins (all αv subunit integrins) on human MSCs (human, UniProt P06756 31-1048); assay: cell-based or functional assay
[3] = system: MSCs; assay: Cell migration via chemotaxis (Boyden chamber); type: cell-based, Human; details: tropoelastin in solution, lower chamber
Description: Chemotaxis was measured using a fluorimetric 96-well Boyden chamber assay system (QCM Chemotaxis Cell Migration Assay, Millipore) according to the supplier's instructions. Normal, tropoelastin-supplemented, or growth factor-supplemented media was added to the lower chamber of the well plate, while MSCs were seeded at 14,300 cells/cm^2 in normal media into the upper chamber. Where indicated, integrin-blocking antibodies were added at optimized concentrations to the upper chamber with the cells. Cells that migrate through the permeable membrane into the lower chamber were detached and quantified. Normalized cell migration was calculated by subtracting the extent of undirected cell migration (where no chemoattractant was added to the lower chamber) from each experimental result.

[4] = system: MSCs; assay: Tri-lineage differentiation of MSCs expanded with tropoelastin; type: cell-based, Human; details: substrate-bound or soluble, replacing growth factors, normal or reduced serum media
Description: MSCs were grown in various media formulations and on bare or protein-coated tissue culture wells for 7 days. The expanded cells were harvested, re-seeded on TCP, and differentiated into the adipogenic, osteogenic and chondrogenic lineages using the hMSC Adipogenic BulletKit®, hMSC Osteogenic BulletKit®, and hMSC Chondrogenic BulletKit® (Lonza), respectively, following the manufacturer's instructions.
To confirm adipogenesis, cells that had been induced for 25 days were washed with PBS, fixed with 10% (v/v) formalin for 30 min, then washed with water. Cells were incubated with 60% (v/v) isopropanol for 5 min and stained for intracellular lipid droplets with 1.8 mg/mL Oil Red O in isopropanol for 20 min. Excess stain was removed with 5 washes of water.
To confirm osteogenesis, cells that had been induced for 14 days were fixed and stained for mineralized calcium deposits with Alizarin Red S, as previously described. Cells from the adipogenic and osteogenic experiments were imaged with a Zeiss Axio Vert.A1 microscope using an AxioCam 105 colour camera.
To confirm chondrogenesis, cell pellets that had been induced for 14 days were washed with PBS, embedded in 1.5% (w/v) agar containing 0.85% (w/v) NaCl, and fixed with 10% (v/v) formalin overnight. […]

[5] = system: MSCs; assay: Flow cytometry of MSC surface marker expression; type: cell-based, Human
Description: MSCs cultured for 5 or 7 days in various media formulations and on bare or protein-coated tissue culture wells were trypsinised and pelleted. The cell pellets were washed with 0.22 μm filtered FACS buffer (5% v/v FBS in PBS) and re-centrifuged at 270 g for 5 min. The cells were resuspended in FACS buffer to a concentration of 100,000 cells in 100 μL total volume, and probed for MSC marker expression using the Human Mesenchymal Stem Cell Verification Flow Kit (R&D Systems®). Isotype and unstained control samples were prepared using MSCs cultured in standard growth media on tissue culture plastic. Cells were analyzed using a BD™ Biosciences LSR II Flow Cytometer System. Singlet cells were determined by their forward scatter-to-side scatter and scatter height-to-width ratios, while viable cells were identified by exclusion of 1:20 propidium iodide. Only singlet, viable cells were analyzed for marker expression.

[6] = tropoelastin substrate, normal media
[7] = tropoelastin substrate, unsupplemented 7% FBS media, 7 days
[8] = tropoelastin-coated surfaces, all media formulations, 5 days post-seeding

Chain of αv integrins (all αv subunit integrins) on human MSCs (P06756 31-1048, form in doubt): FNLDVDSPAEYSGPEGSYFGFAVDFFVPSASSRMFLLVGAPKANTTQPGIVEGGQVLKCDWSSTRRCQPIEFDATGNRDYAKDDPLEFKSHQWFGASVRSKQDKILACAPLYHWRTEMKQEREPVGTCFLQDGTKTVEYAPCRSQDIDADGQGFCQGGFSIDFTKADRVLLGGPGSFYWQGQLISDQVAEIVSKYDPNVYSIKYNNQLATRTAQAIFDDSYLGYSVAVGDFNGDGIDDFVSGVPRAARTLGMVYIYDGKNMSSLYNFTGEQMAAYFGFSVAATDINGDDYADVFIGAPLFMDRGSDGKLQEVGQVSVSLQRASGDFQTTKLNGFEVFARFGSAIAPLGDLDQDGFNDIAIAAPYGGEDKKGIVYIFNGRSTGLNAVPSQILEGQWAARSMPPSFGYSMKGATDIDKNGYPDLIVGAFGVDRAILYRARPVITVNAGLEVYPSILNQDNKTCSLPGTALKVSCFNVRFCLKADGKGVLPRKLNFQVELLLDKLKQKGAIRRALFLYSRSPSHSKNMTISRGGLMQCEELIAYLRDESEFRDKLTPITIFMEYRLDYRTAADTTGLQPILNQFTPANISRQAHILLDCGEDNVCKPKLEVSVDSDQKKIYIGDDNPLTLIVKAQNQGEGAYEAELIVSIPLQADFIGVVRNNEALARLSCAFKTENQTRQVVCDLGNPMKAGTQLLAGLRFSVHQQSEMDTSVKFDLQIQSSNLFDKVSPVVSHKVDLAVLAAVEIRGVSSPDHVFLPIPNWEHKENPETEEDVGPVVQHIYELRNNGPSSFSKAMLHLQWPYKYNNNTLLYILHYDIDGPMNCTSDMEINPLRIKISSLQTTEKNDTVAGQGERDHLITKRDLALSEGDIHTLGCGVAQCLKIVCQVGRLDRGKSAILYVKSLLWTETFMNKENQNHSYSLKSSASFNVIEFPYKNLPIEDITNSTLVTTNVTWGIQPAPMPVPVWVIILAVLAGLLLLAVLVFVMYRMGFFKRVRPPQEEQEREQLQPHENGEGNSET

B1: recombinant human tropoelastin (Elastagen) (ligand, UniProt P15502-2 27-724, looked up)
chain: GGVPGAIPGGVPGGVFYPGAGLGALGGGALGPGGKPLKPVPGGLAGAGLGAGLGAFPAVTFPGALVPGGVADAAAAYKAAKAGAGLGGVPGVGGLGVSAGAVVPQPGAGVKPGKVPGVGLPGVYPGGVLPGARFPGVGVLPGVPTGAGVKPKAPGVGGAFAGIPGVGPFGGPQPGVPLGYPIKAPKLPGGYGLPYTTGKLPYGYGPGGVAGAAGKAGYPTGTGVGPQAAAAAAAKAAAKFGAGAAGVLPGVGGAGVPGVPGAIPGIGGIAGVGTPAAAAAAAAAAKAAKYGAAAGLVPGGPGFGPGVVGVPGAGVPGVGVPGAGIPVVPGAGIPGAAVPGVVSPEAAAKAAAKAAKYGARPGVGVGGIPTYGVGAGGFPGFGVGVGGIPGVAGVPGVGGVPGVGGVPGVGISPEAQAAAAAKAAKYGVGTPAAAAAKAAAKAAQFGLVPGVGVAPGVGVAPGVGVAPGVGLAPGVGVAPGVGVAPGVGVAPGIGPGGVAAAAKSAAKVAAKAQLRAAAGLGAGIPGLGVGVGVPGLGVGAGVPGLGVGAGVPGFGAVPGALAAAKAAKYGAAVPGVLGGLGALGGVGIPGGVVGAGPAAAAAAAKAAAKAAQFGLVGAAGLGGLGVGGLGVPGVGGLGGIPPAAAAKAAKYGAAGLGGVLGGAGQFPLGGVAARPGFGLSPIFPGGACLGKACGRKRK
For B1, the “increase in cell proliferation compared to normal media or media with IGF-1” value ([1]; 1 μg/mL in solution, 7 days) was 18±5%, the “increase in cell proliferation compared to normal media or media with IGF-1” value ([1]; 20 μg/mL in solution, 7 days) was 69±7% and the “improved MSC proliferation over substrate-bound tropoelastin” value ([1]; 20 μg/mL in solution, 7 days post-seeding) was 80±8%. The “increase in MSC proliferation by substrate-bound tropoelastin over TCP” value ([1]; 7% FBS media with IGF-1, 7 days) was 49±1%, the “increase in MSC proliferation by substrate-bound tropoelastin over TCP” value ([1]; 7% FBS media with bFGF, 7 days) was 40±3% and the “increase in MSC proliferation by substrate-bound tropoelastin over TCP” value ([1]; 7% FBS media with both growth factors, 7 days) was 29±3%. For the same molecule, the “increase in MSC proliferation by substrate-bound tropoelastin over TCP” value ([1]; 7% FBS, unsupplemented media, 7 days) was 97±19%, the “tropoelastin-mediated proliferative increase over bare TCP” value ([1]; 10% FBS media with IGF-1, 7 days) was 41±1% and the “tropoelastin-mediated proliferative increase over bare TCP” value ([1]; 10% FBS media with IGF-1 and bFGF, 7 days) was 16±3%. For the same molecule, the “tropoelastin-mediated proliferative increase over bare TCP” value ([1]; 10% FBS media with bFGF, 7 days) was 16±2%, the “serum reduction at which cell expansion remained unaffected” value ([1]; 7 days post-seeding, substrate-bound tropoelastin without growth factors, or IGF-1 and bFGF in media on TCP) was no more than 40% and the “serum reduction at which MSC numbers significantly decreased” value ([1]; coated surface, until 3 days post-seeding) was 80%. The “increase in cell numbers on tropoelastin-coated TCP over bare TCP” value ([1]; normal 10% (v/v) serum media, 7 days) was 39±3%, the “MSC propagation relative to bFGF” value ([1]; soluble 5 μg/mL, until 7 days post-seeding) was “comparable to bFGF” and the “MSC expansion relative to media containing both IGF-1 and bFGF” value ([1]; soluble 20 μg/mL, full serum media) was “equivalent to that in media containing both growth factors”. The “more potent than bFGF for MSC propagation” value ([1]; soluble 20 μg/mL, until 7 days post-seeding) was 18±5%, the “MSC expansion surpassing bFGF” value ([1]; soluble, at and above 1 μg/mL, 3 days post-seeding) was “up to 74±2%” and the “improved MSC proliferation compared to IGF-1 and bFGF in tandem” value ([1]; substrate-bound tropoelastin, 40% decrease in serum (6% FBS), 7 days) was 23±3%. For the same molecule, the “serum reduction tolerated without deleterious effects to proliferation” value ([1]; surface-bound tropoelastin with growth factors in media, after 5 days post-seeding) was no more than 20%, the serum reduction allowed ([1]; surface-bound tropoelastin with growth factors in media, until 5 days post-seeding) was 40% and the “proliferation compared to cells on TCP in media with bFGF” value [1, 6] was “similarly”. For the same molecule, the “proliferation more than cells on TCP in media with IGF-1” value [1, 6] was 36±3%, the “decreased expansion compared to cells on TCP in media containing both IGF-1 and bFGF” value ([1]; tropoelastin substrate, normal media, no additional factors) was 14±2% and the “abundance compared to cells on TCP in media with both growth factors” value [1, 7] was “equivalent in abundance”. The “greater expansion relative to cells on TCP in media with IGF-1” value [1, 7] was 59±15%, the “greater expansion relative to cells on TCP in media with bFGF” value [1, 7] was 37±13% and the “focal adhesions per cell (vinculin staining) of MSCs on tropoelastin compared to those on BSA” value [2] was 1.5 fold. For the same molecule, the “chemotactic response of MSCs” value [3] was “dose-dependent chemotactic response”, the “differentiation capacity after expansion” value [4] was “exhibited the capacity for multi-lineage differentiation” and the “MSC marker expression profile” value ([5]; 20 μg/mL soluble in media) was “displayed characteristic CD90+, CD105+, CD73+ and lineage negative expression profiles”. The “MSC phenotype (marker expression)” value ([5]; substrate-bound, replacing one or both growth factors, full or reduced serum media) was “fully retained”, the “cells expressing positive MSC markers CD90, CD105 and CD73” value [5, 8] was “more than 95%” and the “cells lacking hematopoietic markers CD34, CD45, CD11b, CD79a and HLA-DR” value [5, 8] was “more than 98%”.
